Test results reported in patent publication US20160053277A1, “Compositions Having Dicamba Decarboxylase Activity and Methods of Use” (PIONEER HI-BRED INTERNATIONAL, INC., priority 2013, published 2016).

Assays:
[1] = 14C assay with IPTG-induced recombinant E. coli cells: 14CO2 captured from [14C]-carboxyl-labeled dicamba; details: for Enzymatic Detection level: dicamba decarboxylation activity of the protein of the given SEQ ID NO, High / Low / No; for Dicamba Decarboxylase Activity: induced recombinant E. coli cells, [14C]-carboxyl-labeled dicamba, 14CO2 capture
[2] = Saturation mutagenesis of SEQ ID NO:109: dicamba decarboxylation activity of point mutants (carbon dioxide released); details: decarboxylation activity (carbon dioxide released) of point mutant compared with unmutated backbone protein; backbone SEQ ID NO: 109

Molecule | Enzymatic Detection level [1] | Dicamba Decarboxylase Activity [1] | Fold Activity [2]
78 (protein, listed as Marinobacter adhaerens) MALIDLHAHAPHPDYYDQHPHWGPAFELQSDGDIKLRVGHWVLSLGAPERKQALREAHARGETLDVQEYMAKWRDPEHRLASMDAAGQNAQVLSVPSHCYMYWAEPEFGVPFAKKVNDSLAEYCSAAPDRLMFWAHAPLNVPKEAAKEIRRACTELGAKGLVAGGSNFGGLEFDSPEMDPVWEALCDLDLPMFVHGYNQSVTWGEEANTDRYETTAIVGMNYDESKCFWYMINGGVFDRFPNLKVYITHGGGFVPYQLGRMAQTNPNLDTYHNKKPFLEYLKNFYFDVELHEVPMRQAMVEVIGADRVLYGSNFGGSDAVRHDLTDDLKLSQEDLDKIRWKNACDLLHLDPNKLGKVRG | Low | Low | 1.1
82 (protein, listed as Rhodopseudomonas palustris) MAQNETPVIAIEEHYWDPEMVARFPAGENASPFSTLLTELGDVRLRAMDEAGIDVQVLSHGAPAAQKLPPDVAPELTRRVNDRLAEACARFPNRFAAFAALPTPAPEAAARELERCVRDLGFKGAMIHGLTNGLFIDDKRFWPIFEVAEKLDVPIYLHPSVPHADVTRYYYDDYAREFPTVIRPAWGFTVETATQAIRLILSRALESYPRLQIILGHLGETLPFLLWRINQALARPGQTPLDFRKQFCDHFHVTTSGFFSTPALICTMLELGIDRIMFAVDYPYVVNRDGTDWVQQLQISPDDKRKLVGGNARRLLKL | Low | Low | 0.9
80 (protein, listed as Cordyceps militaris) MAAASTPVVVDIHTHMYPPSYIAMLEKRQTIPLVRTFPQADEPRLILLSSELAALDAALADPAAKLPGRPLSTHFASLAQKMHFMDTNGIRVSVISLANPWFDFLAPDEAPGIADAVNAEFSDMCAQHVGRLFFFAALPLSAPVDAVKASIERVKNLKYCRGIILGTSGLGKGLDDPHLLPVFEAVADAKLLVFLHPHYGLPNEVYGPRSEEYGHVLPLALGFPMETTIAVARMYMAGVFDHVRNLQMLLAHSGGTLPFLAGRIESCIVHDGHLVKTGKVPKDRRTIWTVLKEQIYLDAVIYSEVGLQAAIASSGADRLMFGTDHPFFPPIEEDVQGPWDSSRLNAQAVIKAVGEGSSDAAAVMGLNAVRVLSLKAE | Low | Low | 0.8
76 (protein, listed as Polymorphum gilvum) MAKKIDIFNHIWPEPFFKALIAHIGEMTDITMRSGAVPMMTNLDRRFEVMDMFGPDYMQVLSLASPPLEKLADPAKALELSRIGSDSLAELCQRYPERFPAFIGTAPLSNPAAVVGECRRAIEDLGAAGMQIFTNVAGKPLDLAEFEPFFEYMASAGKPVWLHPARGEAFADYQTEKRSEYEIWWTFGWPYETSAAMARLVFSRMFDKYPGLKVITHHAGGMVPFFEGRVGPGWDQMGARTTDRDLAAVRKALKRPHLDYFKEFYADTASFGSRKAIEHAIEFFGEDRVLFASDAPFDPEGGPMYIRETMRCIDSLDLTDAQRRKIYHGNATALLGLSL | No | No | 1.1
77 (protein, Burkholderia xenovorans) MALIDLHAHAPHPGYYNQHPHWGPFFERHEDGDVKLRVGDWILTLGSPERKALVRAGKGPTVEEYQARWADPKVRLAGMDAAGQNAQVVSVPSHCYMYWAEKEFSVPFATKVNDTFAEYCSAAPDRLMFWAHAALNAPEQAALELRRACTELGAKGLVAGGANFGGLEFDSPELDPVWKVLCDLDLPMFIHGYNQSVTWGKKANDDRYETTAIVGMQYDETRCFWNLVCGGVLDRFPGLKVYITHGGGYVPYQLGRLAQCNGNLDVAHNKKPVLEYLKNNFYFDVELHEVPMRQALIDIIGADRVLYGSNFGGSDAVRHDLTEGLRLSDDDLQKIRWKNACKLLHLDPAKIGEPAKKQAVSA | No | No | 1.3
